According to paper PMC3401642:

What was measured:
[1] = molecular target: HIV-1 subtype C envelope glycoprotein (Env, gp160) clone COT6.15 (HIV-1 subtype C)
[2] = molecular target: HIV-1 subtype A envelope glycoprotein (Env) clone 92RW009 (HIV-1 subtype A)
[3] = molecular target: HIV-1 subtype C envelope glycoprotein (Env, gp160) clone CAP270.cvl44 (HIV-1 subtype C)
[4] = molecular target: HIV-1 subtype A envelope glycoprotein (Env) clone Q461.e2 (HIV-1 subtype A)
[5] = molecular target: HIV-1 subtype C envelope glycoprotein (Env, gp160) clone CAP261.cvl93 (HIV-1 subtype C)
[6] = molecular target: HIV-1 subtype B envelope glycoprotein (Env, gp160) clone THRO4156.18 (HIV-1 subtype B)
[7] = molecular target: HIV-1 subtype C envelope glycoprotein (Env, gp160) clone CAP210.E8J (HIV-1 subtype C)
[8] = molecular target: HIV-1 subtype C envelope glycoprotein (Env, gp160) clone Du151.2 (HIV-1 subtype C)
[9] = molecular target: HIV-1 subtype C envelope glycoprotein (Env, gp160) clone CAP206.08J (HIV-1 subtype C)
[10] = molecular target: HIV-1 subtype C envelope glycoprotein (Env, gp160) clone CAP63.cvl6GA (HIV-1 subtype C)
[11] = molecular target: HIV-1 subtype A envelope glycoprotein (Env) clone Q23.17 (HIV-1 subtype A)
[12] = molecular target: HIV-1 subtype C envelope glycoprotein (Env, gp160) clone CAP177.cvl96 (HIV-1 subtype C)
[13] = molecular target: HIV-1 subtype C envelope glycoprotein (Env, gp160) clone COT9.6 (HIV-1 subtype C)
[14] = molecular target: HIV-1 subtype C envelope glycoprotein (Env, gp160) clone CAP63.A9J (HIV-1 subtype C)
[15] = molecular target: HIV-1 subtype B envelope glycoprotein (Env, gp160) clone CAAN5342.A2 (HIV-1 subtype B)
[16] = molecular target: HIV-1 subtype A envelope glycoprotein (Env) clone Q168.a2 (HIV-1 subtype A)
[17] = molecular target: HIV-1 subtype C Env clone COT6.15 V295N (HIV-1 subtype C)
[18] = molecular target: HIV-1 subtype C Env clone Du151.2 V295N (HIV-1 subtype C)
[19] = molecular target: HIV-1 subtype C Env clone COT9.6 V295N (HIV-1 subtype C)
[20] = molecular target: HIV-1 subtype C envelope glycoprotein (Env, gp160) clone CAP256.F7J (HIV-1 subtype C)
[21] = molecular target: HIV-1 subtype B envelope glycoprotein (Env, gp160) clone PVO.4 (HIV-1 subtype B)
[22] = molecular target: HIV-1 subtype C envelope glycoprotein (Env, gp160) clone TM7.9 (HIV-1 subtype C)
[23] = molecular target: HIV-1 subtype C envelope glycoprotein (Env, gp160) clone RP6.6 (HIV-1 subtype C)
[24] = molecular target: HIV-1 subtype A envelope glycoprotein (Env) clone Q842.d12 (HIV-1 subtype A)
[25] = molecular target: HIV-1 subtype B envelope glycoprotein (Env, gp160) clone WITO4160.33 (HIV-1 subtype B)
[26] = molecular target: HIV-1 subtype B envelope glycoprotein (Env, gp160) clone AC10.0.29 (HIV-1 subtype B)
[27] = molecular target: HIV-1 subtype B envelope glycoprotein (Env, gp160) clone QH0692.42 (HIV-1 subtype B)
[28] = molecular target: HIV-1 subtype C envelope glycoprotein (Env, gp160) clone CAP45.G3J (HIV-1 subtype C)
[29] = molecular target: HIV-1 subtype C envelope glycoprotein (Env, gp160) clone CAP228.51J (HIV-1 subtype C)

Row | Molecule | IC50 of neutralisation of Env-pseudotyped virus (TZM-bl assay) [1] | IC50 of neutralisation of Env-pseudotyped virus (TZM-bl assay) [2] | IC50 of neutralisation of Env-pseudotyped virus (TZM-bl assay) [3] | IC50 of neutralisation of Env-pseudotyped virus (TZM-bl assay) [4] | IC50 of neutralisation of Env-pseudotyped virus (TZM-bl assay) [5] | IC50 of neutralisation of Env-pseudotyped virus (TZM-bl assay) [6] | IC50 of neutralisation of Env-pseudotyped virus (TZM-bl assay) [7] | IC50 of neutralisation of Env-pseudotyped virus (TZM-bl assay) [8] | IC50 of neutralisation of Env-pseudotyped virus (TZM-bl assay) [9] | IC50 of neutralisation of Env-pseudotyped virus (TZM-bl assay) [10] | IC50 of neutralisation of Env-pseudotyped virus (TZM-bl assay) [11] | IC50 of neutralisation of Env-pseudotyped virus (TZM-bl assay) [12] | IC50 of neutralisation of Env-pseudotyped virus (TZM-bl assay) [13] | IC50 of neutralisation of Env-pseudotyped virus (TZM-bl assay) [14] | IC50 of neutralisation of Env-pseudotyped virus (TZM-bl assay) [15] | IC50 of neutralisation of Env-pseudotyped virus (TZM-bl assay) [16] | IC50 of neutralisation of Env-pseudotyped virus (TZM-bl assay) [17] | IC50 of neutralisation of Env-pseudotyped virus (TZM-bl assay) [18] | IC50 of neutralisation of Env-pseudotyped virus (TZM-bl assay) [19] | IC50 of neutralisation of Env-pseudotyped virus (TZM-bl assay) [20] | further results
1 | Griffithsin (from UniProt P84801 1-121) (natural protein) | 0.4 nM | 1.8 nM | 0.3 nM | 0.12 nM | 4.2 nM | 1.2 nM | 0.2 nM | 1.5 nM | 30.9 nM | 25.7 nM | 1.9 nM | 55.9 nM | 1.2 nM | 23.2 nM | 11.7 nM | 3.3 nM | 0.06 nM | 0.03 nM | 0.06 nM |  | 
2 | Scytovirin (from UniProt P86041 1-95) (natural protein) | 10.8 nM | 21.8 nM | 11.7 nM | 18.9 nM | 6.2 nM | 42.6 nM | 33.1 nM | 27.5 nM | 113 nM | 43.8 nM | 29.8 nM | 21.8 nM | 57.6 nM | 29.8 nM | 188 nM | 9.4 nM | 16.1 nM | 32.5 nM | 63 nM | 6.7 nM | IC50 of neutralisation of Env-pseudotyped virus (TZM-bl assay) [21]: 25.2 nM; IC50 of neutralisation of Env-pseudotyped virus (TZM-bl assay) [22]: 12.1 nM; IC50 of neutralisation of Env-pseudotyped virus (TZM-bl assay) [23]: 11.3 nM; IC50 of neutralisation of Env-pseudotyped virus (TZM-bl assay) [24]: 40.9 nM; IC50 of neutralisation of Env-pseudotyped virus (TZM-bl assay) [25]: 24.8 nM; IC50 of neutralisation of Env-pseudotyped virus (TZM-bl assay) [26]: 24.5 nM; IC50 of neutralisation of Env-pseudotyped virus (TZM-bl assay) [27]: 27.3 nM; IC50 of neutralisation of Env-pseudotyped virus (TZM-bl assay) [28]: 16.9 nM; IC50 of neutralisation of Env-pseudotyped virus (TZM-bl assay) [29]: 20.1 nM
3 | Cyanovirin-N (natural protein) LGKFSQTCYNSAIQGSVLTSTCERTNGGYNTSSIDLNSVIENVDGSLKWQPSNFIETCRNTQLAGSSELAAECKTRAQQFVSTKINLDDHIANIDGTLKYE | 0.9 nM | 1.2 nM |  | 1.2 nM | 1.8 nM |  | 1.2 nM | 2 nM | 18 nM | 3.1 nM | 3 nM | 7.5 nM | 3.9 nM | 1.8 nM | 16.7 nM | 1.4 nM | 1.1 nM | 1.2 nM | 4.4 nM | 1.1 nM | IC50 of neutralisation of Env-pseudotyped virus (TZM-bl assay) [22]: 1.1 nM; IC50 of neutralisation of Env-pseudotyped virus (TZM-bl assay) [23]: 1.1 nM; IC50 of neutralisation of Env-pseudotyped virus (TZM-bl assay) [24]: 2.5 nM; IC50 of neutralisation of Env-pseudotyped virus (TZM-bl assay) [25]: 1.5 nM; IC50 of neutralisation of Env-pseudotyped virus (TZM-bl assay) [26]: 0.3 nM; IC50 of neutralisation of Env-pseudotyped virus (TZM-bl assay) [27]: 2.5 nM; IC50 of neutralisation of Env-pseudotyped virus (TZM-bl assay) [29]: 3.1 nM
